This data set relates to VchCAST TnsB transposase (Tn6677; assayed with TnsA-TnsC and TniQ-Cascade) (Vibrio cholerae). Put plainly: cell_activity. The following applies: for binding signal: no IPTG.

With “ACATTTGTTGATACAACCATAAAATGATAATTACACCCATAAATTGATAATTATCACACCCATAAATTGATATTGCCTCTGGCGCTCTGTACCCCGCTCGGTCCTCCCGCGCATCGCGCACCGACAC (double strand) [Right end hyperactive 2698]”, under “T-RL”, the binding signal turned out to be 1.59 fold vs WT.
“ACATTTGTTGATACAACCATAAAATGATAATTACACCCATAAATTGATAATTATCACACCCATAAATTGATATTGCCTCTGTACGATCCAGTGATCTCCAAGACGCTGCAAGAGTCCGCACCGACAC (double strand) [Right end hyperactive 2702]” showed a binding signal (T-RL) of 1.71 fold vs WT.
Still for that read-out and setting: under “ACATTTGTTGATACAACCATAAAATGATAATTACACCCATAAATTGATAATTATCACACCCATAAATTGATATTGCCTCTGTTGGCGCCCGGCCCTCAGGCCCTGCAGTGAGTTCCAGCACCGACAC (double strand) [Right end hyperactive 2699]” stands 1.77 fold vs WT; under “ACATTTGTTGATACAACCATAAAATGATAATTACACCCATAAATTGATAATTATCACACCCATAAATTGATATTGCCTCTTTATGCAGGACGACGTACGCGTTCCATATAAACCTGTGCACCGACAC (double strand) [Right end hyperactive 2696]”, 1.83 fold vs WT.
On to “ACATTTGTTGATACAACCATAAAATGATAATTACACCCATAAATTGATAATTATCACACCCATACCTTGATATTGCCTCTGATCATAGTCAGACCAACATTGCTACGACCCGTATTCGCACCGACAC (double strand) [Right end variant 1100]”, for which the binding signal (log2 fold vs WT) (T-RL, second replicate 1.4027) is 1.3.
For “ACATTTGTTGATACAACCATAAAATGATAATTATACCCATAAATTGATAATTATCACACCCATAAATTGATATTGCCTCTGATCATAGTCAGACCAACATTGCTACGACCCGTATTCGCACCGACAC (double strand) [Right end variant 985]”, under “T-RL, second replicate -1.2264”, the binding signal (log2 fold vs WT) is -1.42.
With “ACATTTGTTGATACAACCATAATATGATAATTACACCCATAAATTGATAATTATCACACCCATAAATTGATATTGCCTCTGATCATAGTCAGACCAACATTGCTACGACCCGTATTCGCACCGACAC (double strand) [Right end variant 1017]”, the binding signal (log2 fold vs WT) (T-RL, second replicate 1.4722) came out at 1.36.
As for “ACATTTTTTGATACAACCATAAAATGATAATTACACCCATAAATTGATAATTATCACACCCATAAATTGATATTGCCTCTGATCATAGTCAGACCAACATTGCTACGACCCGTATTCGCACCGACAC (double strand) [Right end variant 1066]”, the binding signal (log2 fold vs WT) (T-RL, second replicate -1.9162) was -2.48.
Take “TGTGGATACAACCATAAAACGATAATTACACCCATAAATGGATCATTATCACACCCA (double strand) [Right end ORF1b]”: the binding signal (log2 fold vs WT) (T-RL, second replicate) was -2.03.
On to “TGTGGATACAACCATAAAATGATAATTACACCCATAAATGGATCATTATCACCCCCA (double strand) [Right end ORF1a]”, for which, where the note is “T-RL integration, second replicate -1.08”, the binding signal (log2 fold vs WT) is -1.47.
Take “TGTGGATCCAACCATAAAATGATAATTACACCCATAAATGGATCATTATCACACCCA (double strand) [Right end ORF1c]”: the binding signal (log2 fold vs WT) (T-RL, second replicate -1.51) was -2.06.
As for “TGTTGATACAACCATAAAAGGATTATTACACCCATTAATTGATAATTATCACACCCA (double strand) [Right end ORF2a]”, where the note is “T-RL, second replicate -1.82”, the binding signal (log2 fold vs WT) was -2.22.
For “TGTTGATACAACCATCAAATGGTAATTACACCCATAAATTGATAATTATCACACCCA (double strand) [Right end ORF3a]”, the binding signal (log2 fold vs WT) (T-RL, second replicate -0.05) was -0.64.
Regarding “TGTTGATACAACCATTAAATGATAATTCCACCCATAATTTGATAATTATCACACCCA (double strand) [Right end ORF3b]”, the binding signal (log2 fold vs WT) (T-RL, second replicate -0.65) was -0.84.
For the sequence “TGTTGATACAACCATTAAATGGTAATTCCACCCAAATATTGATAATTATCACACCCA (double strand) [Right end ORF3c]”, the binding signal (log2 fold vs WT) (T-RL, second replicate -1.89) is -2.49.
As for “TTTTGTGTTGAAACAACCATAAAGTGATAACAACGAATCAATTAAAATCATAGGCTTAATCGAAAAACAACCATATATTGATATCTCATAAAACAACCATAAGTTGATATTTTGGTGAAAAGGATATTCCAACCTTCATAGTTTAGTAAGAA (double strand) [Left end hyperactive 4669]”, the binding signal (T-RL) came out at 1.69 fold vs WT.

The values above are taken from patent publication US20250163410.
